The source of these data is PMC6469041 (BMC Microbiology, 2019).

For data set [1], the target named is T1, PhnCDE (strain RS07, phn+3Δ) (Escherichia coli, UniProt A0A140NFA3+P16682).
T1 construct: gene phnD; native chromosomal ABC transporter in intact cells of RS07 (MG1655 ΔpitA ΔugpBAEC ΔpstSCAB-phoU phnE+); phnE is the functional BL21 allele without the 8 bp insertion of K-12; phnC and phnD may be of K-12 or co-transduced from BL21
T1 sequence (P16682 27-338): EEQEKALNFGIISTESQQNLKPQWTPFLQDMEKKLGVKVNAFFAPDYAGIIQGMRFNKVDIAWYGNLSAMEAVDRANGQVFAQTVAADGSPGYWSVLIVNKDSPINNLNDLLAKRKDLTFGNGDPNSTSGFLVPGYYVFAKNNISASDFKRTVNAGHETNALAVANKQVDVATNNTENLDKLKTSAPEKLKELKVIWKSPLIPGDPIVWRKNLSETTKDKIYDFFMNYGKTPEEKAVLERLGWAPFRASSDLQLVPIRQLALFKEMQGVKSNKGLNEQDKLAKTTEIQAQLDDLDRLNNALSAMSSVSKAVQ
T1 sequence (A0A140NFA3 1-259): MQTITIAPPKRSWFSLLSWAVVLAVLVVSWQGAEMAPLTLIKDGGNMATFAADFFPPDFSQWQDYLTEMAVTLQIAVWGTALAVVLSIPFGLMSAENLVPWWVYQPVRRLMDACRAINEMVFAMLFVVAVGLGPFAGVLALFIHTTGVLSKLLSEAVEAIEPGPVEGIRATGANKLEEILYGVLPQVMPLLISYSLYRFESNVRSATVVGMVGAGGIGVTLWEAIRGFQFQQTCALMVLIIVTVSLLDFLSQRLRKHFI
T1 sequence (P16677 1-262 partner): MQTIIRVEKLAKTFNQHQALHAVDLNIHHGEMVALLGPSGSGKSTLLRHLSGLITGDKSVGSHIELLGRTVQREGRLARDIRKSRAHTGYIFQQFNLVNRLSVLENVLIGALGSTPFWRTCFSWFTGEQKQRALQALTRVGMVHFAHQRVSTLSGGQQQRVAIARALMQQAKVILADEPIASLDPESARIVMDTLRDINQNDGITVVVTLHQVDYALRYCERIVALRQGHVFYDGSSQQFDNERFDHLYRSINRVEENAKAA
Put plainly: competition of […] uptake by intact cells. The format is cell-based. Particulars: 10 µM 32Pi, 4 mM AePn added 50 s later; strain used for this test not named.

Substrate in data set [2]: O=P(O)(O)O
The data set can be described thus: cells, lysate or membranes.

As for `NCCP(=O)(O)O` [AePn, aminoethylphosphonate], in data set [1], the “inhibition of Pi uptake at 4 mM” value was “addition of AePn strongly inhibited Pi uptake when compared to the control”.

B1: PitA (strain RS04, pitA+3Δ) (Escherichia coli K-12) (protein)
chain: MLHLFAGLDLHTGLLLLLALAFVLFYEAINGFHDTANAVATVIYTRAMRSQLAVVMAAVFNFLGVLLGGLSVAYAIVHMLPTDLLLNMGSSHGLAMVFSMLLAAIIWNLGTWYFGLPASSSHTLIGAIIGIGLTNALMTGTSVVDALNIPKVLSIFGSLIVSPIVGLVFAGGLIFLLRRYWSGTKKRARIHLTPAEREKKDGKKKPPFWTRIALILSAIGVAFSHGANDGQKGIGLVMLVLIGVAPAGFVVNMNATGYEITRTRDAINNVEAYFEQHPALLKQATGADQLVPAPEAGATQPAEFHCHPSNTINALNRLKGMLTTDVESYDKLSLDQRSQMRRIMLCVSDTIDKVVKMPGVSADDQRLLKKLKSDMLSTIEYAPVWIIMAVALALGIGTMIGWRRVATTIGEKIGKKGMTYAQGMSAQMTAAVSIGLASYTGMPVSTTHVLSSSVAGTMVVDGGGLQRKTVTSILMAWVFTLPAAVLLSGGLYWLSLQFL
With B1, the Km in data set [2] (15-50 µM KH2PO4, TG medium (Tris T-salts, glucose) pH 7.5, labelled compound) is 25.99 µM.

B2: PhnCDE (strain RS07, phn+3Δ) (Escherichia coli BL21(DE3)) (protein)
chain 1: EEQEKALNFGIISTESQQNLKPQWTPFLQDMEKKLGVKVNAFFAPDYAGIIQGMRFNKVDIAWYGNLSAMEAVDRANGQVFAQTVAADGSPGYWSVLIVNKDSPINNLNDLLAKRKDLTFGNGDPNSTSGFLVPGYYVFAKNNISASDFKRTVNAGHETNALAVANKQVDVATNNTENLDKLKTSAPEKLKELKVIWKSPLIPGDPIVWRKNLSETTKDKIYDFFMNYGKTPEEKAVLERLGWAPFRASSDLQLVPIRQLALFKEMQGVKSNKGLNEQDKLAKTTEIQAQLDDLDRLNNALSAMSSVSKAVQ
chain 2: MQTITIAPPKRSWFSLLSWAVVLAVLVVSWQGAEMAPLTLIKDGGNMATFAADFFPPDFSQWQDYLTEMAVTLQIAVWGTALAVVLSIPFGLMSAENLVPWWVYQPVRRLMDACRAINEMVFAMLFVVAVGLGPFAGVLALFIHTTGVLSKLLSEAVEAIEPGPVEGIRATGANKLEEILYGVLPQVMPLLISYSLYRFESNVRSATVVGMVGAGGIGVTLWEAIRGFQFQQTCALMVLIIVTVSLLDFLSQRLRKHFI
Turning to B2, in data set [2] (5-20 µM KH2PO4, TG medium (Tris T-salts, glucose) pH 7.5, labelled compound), the Km is 19.46 µM.
